B1: GLP SET (protein)
chain: not shown
B2: G9a SET (protein)
chain: not shown

Molecular target: T1, Dnmt3a K44me0 peptide 39-50 (Mus musculus, UniProt O88508)
T1 chain: SATARKVGRPGR

Binder	Kd [µM]
B1	~5
B2	~5

Reference: publication PMC3286832 (2011)
